# Reference: the Human Domainome abundance scans (Beltran et al. 2025)
# ± gives the uncertainty stated by the source.
# B1: Double-stranded RNA-specific adenosine deaminase, residues 296 to 358; numbered along this chain, P55265 (parent)
# chain: MAEIKEKICDYLFNVSDSSALNLAKNIGLTKARDINAVLIDMERQGDVYRQGTTPPIWHLTDK
# Variants of: B1
# Experiment: abundance fitness (aPCA) (normalised: wild type 0, dead -1); higher = more abundant; growth selection in yeast, the domain comes from the species named
# Conditions: Homo sapiens
row,Variant,abundance fitness
1,A24Y,-0.406 ± 0.1
2,A24I,-0.552 ± 0.094
3,A24F,-0.566 ± 0.086
4,L21V,-0.015 ± 0.052
5,L21I,-0.044 ± 0.12
6,L21H,-0.046 ± 0.092
7,L21E,0.476 ± 0.063
8,W58S,-0.254 ± 0.054
9,W58P,-0.409 ± 0.097
10,W58T,-0.251 ± 0.043
11,W58Q,-0.152 ± 0.071
12,W58K,-0.303 ± 0.042
13,W58I,-0.366 ± 0.1
14,M1E,0.235 ± 0.13
15,M1F,0.108 ± 0.2
16,M1S,-0.034 ± 0.066
17,M1A,-0.418 ± 0.13
18,M1C,-0.545 ± 0.3
19,M1D,-0.359 ± 0.11
20,V38R,-0.528 ± 0.049
21,V38L,-0.253 ± 0.038
22,V38A,0.343 ± 0.061
23,V38H,-0.31 ± 0.11
24,V38I,0.035 ± 0.07

row,Variant,abundance fitness
1,V38T,-0.11 ± 0.057
2,V38F,-0.952 ± 0.21
3,V38Q,-0.276 ± 0.075
4,V38N,-0.195 ± 0.11
5,V38W,-0.739 ± 0.081
6,D41V,-1.14 ± 0.2
7,D41Y,-1.06 ± 0.24
8,D41T,-0.445 ± 0.071
9,D41A,-0.315 ± 0.062
10,D41L,-0.99 ± 0.11
11,D41P,-0.421 ± 0.076
12,K63E,-0.234 ± 0.11
13,K63G,-0.442 ± 0.15
14,K63C,-0.258 ± 0.13
15,K63M,-0.619 ± 0.28
16,K63T,-0.297 ± 0.11
17,K63R,0.032 ± 0.1
18,K25E,-0.124 ± 0.083
19,K25T,-0.32 ± 0.058
20,K25L,-0.404 ± 0.056
21,R50Y,-0.985 ± 0.19
22,R50Q,0.036 ± 0.083
23,R50S,-0.019 ± 0.044
24,R50W,-0.722 ± 0.13

row,Variant,abundance fitness
1,R50E,-0.392 ± 0.073
2,R50G,-0.453 ± 0.053
3,A32P,-0.162 ± 0.065
4,A32N,-0.232 ± 0.095
5,A32T,-0.018 ± 0.086
6,A32H,-0.204 ± 0.082
7,A32V,0.108 ± 0.054
8,A32Y,-0.088 ± 0.079
9,A2F,-0.471 ± 0.21
10,A2Q,0.023 ± 0.092
11,A2M,0.045 ± 0.071
12,A2S,-0.024 ± 0.063
13,A2L,-0.096 ± 0.06
14,A2N,0.051 ± 0.078
15,A2H,-0.151 ± 0.18
16,R44M,-0.27 ± 0.061
17,R44Q,0.037 ± 0.061
18,R44T,-0.043 ± 0.091
19,V15T,-0.392 ± 0.11
20,V15I,-0.2 ± 0.2
21,V15M,-0.203 ± 0.078
22,V15S,-0.137 ± 0.062
23,V15H,0.489 ± 0.23
24,V15W,-0.213 ± 0.063

row,Variant,abundance fitness
1,G46E,-0.66 ± 0.087
2,G46N,-0.827 ± 0.15
3,G46V,-0.613 ± 0.073
4,G46Q,-0.652 ± 0.12
5,G46P,-0.778 ± 0.1
6,P56R,-0.686 ± 0.15
7,P56V,-0.099 ± 0.1
8,I8S,-0.304 ± 0.15
9,I8P,-0.455 ± 0.18
10,Y11D,-0.488 ± 0.087
11,Y11G,-0.391 ± 0.049
12,I27D,-0.277 ± 0.072
13,I27R,-0.584 ± 0.053
14,I27K,-0.324 ± 0.084
15,I27Y,-0.944 ± 0.14
16,I27A,-0.471 ± 0.053
17,I27S,-0.435 ± 0.048
18,G52H,-0.234 ± 0.06
19,G52I,-0.779 ± 0.12
20,G52L,-0.764 ± 0.065
21,G52N,-0.072 ± 0.069
22,G52V,-0.638 ± 0.062
23,S18K,-0.549 ± 0.063
24,S18R,-0.721 ± 0.056

row,Variant,abundance fitness
1,S18M,-0.684 ± 0.1
2,S18F,-0.816 ± 0.15
3,S18Y,-0.698 ± 0.11
4,S18D,-0.461 ± 0.085
5,D62R,-0.167 ± 0.052
6,D62N,-0.432 ± 0.092
7,D62G,-0.19 ± 0.043
8,D62K,0.002 ± 0.057
9,D62A,0.053 ± 0.046
10,D62M,-0.409 ± 0.11
11,D62Q,0.017 ± 0.088
12,D62W,-0.445 ± 0.087
13,I4Q,-0.327 ± 0.068
14,I4T,-0.24 ± 0.054
15,I4M,-0.217 ± 0.056
16,I4S,-0.311 ± 0.04
17,I4V,-0.293 ± 0.042
18,I4C,-0.995 ± 0.092
19,I4W,-0.666 ± 0.07
20,I4N,-0.327 ± 0.059
21,I4R,-0.387 ± 0.043
22,Y49L,-0.27 ± 0.044
23,Y49P,-0.519 ± 0.071
24,Y49M,0.003 ± 0.062

row,Variant,abundance fitness
1,Y49E,0.259 ± 0.057
2,Y49G,-0.076 ± 0.055
3,S16L,-0.525 ± 0.054
4,S16K,0.206 ± 0.079
5,S16H,-0.108 ± 0.094
6,L29H,-0.325 ± 0.06
7,L29D,0.035 ± 0.058
8,L29C,-0.125 ± 0.049
9,L29V,-0.1 ± 0.054
10,L29R,-0.356 ± 0.076
11,L29E,0.045 ± 0.11
12,L29W,-0.633 ± 0.23
13,L29K,-0.54 ± 0.29
14,L29M,0.154 ± 0.096
15,L29S,-0.17 ± 0.045
16,L29G,0.006 ± 0.058
17,L29T,-0.167 ± 0.062
18,I40M,0.122 ± 0.058
19,I40W,-0.388 ± 0.066
20,I40N,0.075 ± 0.052
21,I40C,-0.153 ± 0.077
22,I40D,-0.093 ± 0.062
23,I40L,0.128 ± 0.039
24,I40A,0.083 ± 0.056

row,Variant,abundance fitness
1,I40H,-0.218 ± 0.071
2,I40F,-0.165 ± 0.11
3,I40Q,0.159 ± 0.068
4,I40S,0.117 ± 0.041
5,L39N,-0.393 ± 0.089
6,L39P,-0.385 ± 0.078
7,L39M,-0.294 ± 0.059
8,L39F,-0.812 ± 0.09
9,L39K,-0.096 ± 0.059
10,L39V,-0.589 ± 0.08
11,L39W,-0.966 ± 0.13
12,L39T,-0.461 ± 0.064
13,L39H,-0.44 ± 0.13
14,N14Y,0.045 ± 0.096
15,N14S,0.017 ± 0.047
16,N14H,0.085 ± 0.062
17,N14L,-0.121 ± 0.047
18,N14A,-0.014 ± 0.049
19,D34C,-0.978 ± 0.18
20,D34A,-0.243 ± 0.054
21,D34M,-0.333 ± 0.051
22,D34Y,-0.694 ± 0.11
23,D34I,-0.422 ± 0.13
